The target of the assay is TaCDC48-L745W (W466F, W541Y, L745W) (T. acidophilum, UniProt O05209 1-745, W466F | W541Y | L745W). Description: tryptophan fluorescence shift.

One molecule from publication PMC3493965 (The Journal of Biological Chemistry, 2012) can be followed below.

Sequence of TaCDC48-L745W (W466F, W541Y, L745W) (O05209 whole entry W466F/W541Y/L745W): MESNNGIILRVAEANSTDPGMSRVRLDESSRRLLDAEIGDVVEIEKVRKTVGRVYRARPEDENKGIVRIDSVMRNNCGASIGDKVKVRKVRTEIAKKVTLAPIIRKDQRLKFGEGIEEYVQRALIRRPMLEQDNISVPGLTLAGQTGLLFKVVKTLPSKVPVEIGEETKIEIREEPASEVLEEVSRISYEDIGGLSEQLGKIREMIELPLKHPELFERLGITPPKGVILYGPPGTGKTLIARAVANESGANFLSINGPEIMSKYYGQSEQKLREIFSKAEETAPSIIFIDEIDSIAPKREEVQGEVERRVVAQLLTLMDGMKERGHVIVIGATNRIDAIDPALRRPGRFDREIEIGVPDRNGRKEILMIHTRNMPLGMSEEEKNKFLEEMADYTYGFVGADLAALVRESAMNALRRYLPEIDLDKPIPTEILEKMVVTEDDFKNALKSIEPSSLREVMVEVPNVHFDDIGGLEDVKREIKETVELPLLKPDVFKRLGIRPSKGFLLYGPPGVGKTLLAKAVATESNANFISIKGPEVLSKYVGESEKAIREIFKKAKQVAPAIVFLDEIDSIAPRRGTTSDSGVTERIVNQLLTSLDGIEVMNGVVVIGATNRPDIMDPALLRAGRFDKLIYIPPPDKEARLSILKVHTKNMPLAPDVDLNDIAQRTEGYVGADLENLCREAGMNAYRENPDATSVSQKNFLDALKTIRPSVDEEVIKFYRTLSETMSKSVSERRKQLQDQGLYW

B1: Thermoplasma acidophilum 20S proteasome core particle, recombinant (complex, T. acidophilum)
chain 1: MQQGQMAYDRAITVFSPDGRLFQVEYAREAVKKGSTALGMKFANGVLLISDKKVRSRLIEQNSIEKIQLIDDYVAAVTSGLVADARVLVDFARISAQQEKVTYGSLVNIENLVKRVADQMQQYTQYGGVRPYGVSLIFAGIDQIGPRLFDCDPAGTINEYKATAIGSGKDAVVSFLEREYKENLPEKEAVTLGIKALKSSLEEGEELKAPEIASITVGNKYRIYDQEEVKKFL
chain 2: TTTVGITLKDAVIMATERRVTMENFIMHKNGKKLFQIDTYTGMTIAGLVGDAQVLVRYMKAELELYRLQRRVNMPIEAVATLLSNMLNQVKYMPYMVQLLVGGIDTAPHVFSIDAAGGSVEDIYASTGSGSPFVYGVLESQYSEKMTVDEGVDLVIRAISAAKQRDSASGGMIDVAVITRKDGYVQLPTDQIESRIRKLGLIL
As to B1, the binding result was “binds”.
